Results on one substance are retold here after US20050276784A1.

Assay [1] addresses c-kit receptor (wild type), on mast cells and on NIH ψ2 cells expressing the c-kit cDNA (mouse) (UniProt P05532).
The target in assay [2] is c-kit receptor of the W^v allele, on W^v/W^v mast cells (mouse) (UniProt P05532).

For the substance “KL (c-kit ligand), soluble form purified from conditioned medium of Balb/3T3 fibroblasts (from UniProt P20826)”, in assay [1], the half maximal proliferation of +/+ mast cells (^3H-thymidine incorporation) (ng of protein in 0.2 ml) came out at 0.5. Also, the proliferation of mast cells (^3H-thymidine incorporation) (% of +/+ values) in assay [2] was 10.
